This note sets out measurements from PMC4191077, “Modeling hemoglobin and hemoglobin:haptoglobin complex clearance in a non-rodent species–pharmacokinetic and therapeutic implications” (Frontiers in Physiology, 2014).

The target of this assay is T1, Dog haptoglobin (purified) (dog, UniProt P19006 1-83; P19006 85-329).
T1 construct: haptoglobin alpha chain, dog; haptoglobin beta chain, dog; The supplier is named only for the fluorescent labelling; also called dog Hp; source: bought: Lee Biosolutions (St. Louis, Missouri USA); copies: 2 + 2
T1 sequence (looked up) 1: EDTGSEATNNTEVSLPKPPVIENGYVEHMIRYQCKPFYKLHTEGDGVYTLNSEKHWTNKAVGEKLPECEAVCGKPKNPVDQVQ
T1 sequence (looked up) 2: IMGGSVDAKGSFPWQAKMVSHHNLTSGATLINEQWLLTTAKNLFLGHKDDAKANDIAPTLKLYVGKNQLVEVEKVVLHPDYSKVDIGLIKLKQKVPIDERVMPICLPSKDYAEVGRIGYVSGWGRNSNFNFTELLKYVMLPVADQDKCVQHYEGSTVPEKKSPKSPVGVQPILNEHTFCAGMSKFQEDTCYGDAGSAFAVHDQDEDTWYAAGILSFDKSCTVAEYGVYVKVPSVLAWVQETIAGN
In words: SEC; purified standards of Hb and Hb:Hp complexes on a BioSep-SEC-S3000 column (600 x 7.5 mm), detection at 405 nm. As to conditions: both partners purified. For orientation: Size exclusion chromatography separates by hydrodynamic size, large species first.

B1: Dog hemoglobin (natural protein)
chain 1: not shown
chain 2: not shown
notes: hemoglobin subunit alpha, dog; hemoglobin subunit beta, dog; also called dog Hb; purified dog Hb; source: prepared using a standardized method previously described (Palmer et al., 2009)
With B1, the binding result is “binds”.
